# Data published in patent US5770577.
# Biological target: trkB
row,Substance,Activ. in vitro (MTS tetrazolium uptake by PC12/pcDneo-trkB#18 cells) [%]
1,r-metHuBDNF (ligand),100
2,monoMPEG(6 kDa)-BDNF conjugate with site of attachment at the N-terminal alpha-amino group(s) (Example 1) (ligand),101
3,monoMPEG(20 kDa)-BDNF conjugate with site of attachment at the N-terminal alpha-amino group(s) (Example 2) (ligand),73
4,"polyMPEG(6 kDa)-BDNF conjugates with MPEG aldehydes, six-fold molar excess (Example 4) (ligand)",25
